Measured values as given in patent US20160369264A1 (HOWARD HUGHES MEDICAL INSTITUTE, published 2016).

How the values were obtained:
[1] = target: the molecule itself; assay: self-assembly of trimers; cell-free expression, negative-stain EM
Protocol: (A) Design p3Z_42 expressed using an in vitro expression kit. This negative-stain micrograph was made 4 hours after adding pure plasmid DNA of p3Z_42 to the kit components without purification. A Fourier transform is shown from a crystal in the micrograph showing the same P 3 2 1 lattice as visualized in p3Z_42 E. coli expression. (B) Fast dilution re-folded p4Z_9 protein. Large arrays form analogous to those seen from E. coli expressed protein. A Fourier transform is shown highlighting the square lattice. (C) Dialysis re-folded p4Z_9 protein. Large fibrous structures form with the same square array pattern as in E. coli expressed proteins. Fourier transform is shown highlighting the square repeat pattern. (D) Purified and concentrated protein from p6_9H soluble fractions. Arrays were not visualized at this point. […] (E) p6_9H array formation from material as in (d). These arrays formed after further concentration of protein as in (d) and heat application in a water bath. […] Fourier transform is shown with the same P 6 arrangement seen in the pellet sample. Scale bars=50 nm.

[2] = target: the molecule itself; assay: self-assembly of tetramers; negative-stain EM of E. coli pellet
[3] = target: the molecule itself; assay: self-assembly of fusion trimers; negative-stain TEM of E. coli pellet
Protocol: Synthetic genes of each fusion were obtained and protein was expressed in Escherichia coli cells using a standard T7 based expression vector (Table 2). The protein expression was verified by sodium dodecyl sulfate polyacrylamide gel electrophoresis (SDS-PAGE) after separation of the soluble and insoluble cell portions. Samples of observed protein in the cellular pellets were analyzed for array formation by negative-stain Transmission Electron Microscopy (TEM). […] It is worth noting that 5/7 of the remaining fusions either shared a similar sequence and unknown but potentially similar structures (2 unpublished binding proteins) or were either the same molecular weight or much larger than the p3Z-42 monomer protein (3 proteins between ˜25-35 kDa).

[4] = target: the molecule itself; assay: self-assembly of fusion trimers; negative-stain EM
[5] = target: the molecule itself; assay: self-assembly of trimers; negative-stain EM of E. coli pellet

B1: p3Z_42 (designed binder)
chain: MHNNRLQLSRLERVYQSEQAEKLLLAGVMLRDPARFDLRGSLTHGRDVEIDTNVIIEGNVSLGNRVKIGTGCVIKNSAIGDDCEISPYTVVEDAVLAAACTIGPFARLRPGAVLLEGAHVGNFVEMKKAVLGKGSKAGHLTYLGDAAIGDNVNIGAGTITCNYDGANKFTTIIGDDVFVGSDTQLVAPVSVGKGATIAAGTTVTRNVGANALAISRVPQTQKEGWRRPVKKKLE
notes: Designed self-assembling protein; beta-helix trimer (C3) that packs into a P 3 2 1 lattice; Expressed from pet29b in E. coli or with a cell-free kit; also called design p3Z_42
binding result [1]: binds

B2: p4Z_9 (designed binder)
chain: MEAVRAYELQLELQQIRTLRQSLELKAKELEYAAGIITSLKSERRIYRAFSDLLVEITKLEAIEHIARSIIVYVREIAKLAKRETEIMEELSKLRAPLSLE
notes: Designed self-assembling protein; tetramer (C4) that packs into a P 4 21 2 lattice; also called design p4Z_9
binding result [2]: binds

B3: p3Z-42 Ferrodoxin fusion (designed binder)
chain: MLTVEVEVKITADDENKAEEIVKRVIDEVEREVQKQYPNATITRTLTRDDGTVELRIKVKADTEEKAKSIIKLIEERIEEELRKRDPNATITRTVRTEVGSSWSGSGSGGMHNNRLQLSRLERVYQSEQAEKLLLAGVMLRDPARFDLRGSLTHGRDVEIDTNVIIEGNVSLGNRVKIGTGCVIKNSAIGDDCEISPYTVVEDAVLAAACTIGPFARLRPGAVLLEGAHVGNFVEMKKAVLGKGSKAGHLTYLGDAAIGDNVNIGAGTITCNYDGANKFTTIIGDDVFVGSDTQLVAPVSVGKGATIAAGTTVTRNVGANALAISRVPQTQKEGWRRPVKKK
binding result [3]: binds

B4: p3Z-42 TDRD2 fusion (designed binder)
chain: MGSRSLQLDKLVNEMTQHYENSVPEDLTVHVGDIVAAPLPTNGSWYRARVLGTLENGNLDLYFVDFGDNGDCPLKDLRALRSDFLSLPFQAIECSGSGSGGMHNNRLQLSRLERVYQSEQAEKLLLAGVMLRDPARFDLRGSLTHGRDVEIDTNVIIEGNVSLGNRVKIGTGCVIKNSAIGDDCEISPYTVVEDAVLAAACTIGPFARLRPGAVLLEGAHVGNFVEMKKAVLGKGSKAGHLTYLGDAAIGDNVNIGAGTITCNYDGANKFTTIIGDDVFVGSDTQLVAPVSVGKGATIAAGTTVTRNVGANALAISRVPQTQKEGWRRPVKKK
binding result [4]: binds

B5: p3Z_11 (designed binder)
chain: MEEVVLITVPSESVARIIAKALVASRLAACVNIVPGLTSIYRWQGSVVEDQELLLLVKTTTHAFPKLKHTVKIIHPYTVPEIVALPIAEGNREYLDWLRENTGLE
notes: Designed self-assembling protein; Expressed from pet29b in E. coli; also called design p3Z_11
binding result [5]: binds
